Data reported in patent EP4592322A1.

Biological target: integrin alpha(IIb)beta(3) (UniProt P08514)
Experiment: cell-based or functional assay

B1: trimucrin variant RR (protein)
chain: EAGEECDCGSPENPCCDAATCKLRPGAQCAEGLCCDQCRFKKKRTICRRAKGDRRDDRCTGQSADCPRNRLYG
  IC50: platelet aggregation: 52.5 nM
  Ratio (RR/corresponding protein) of IC50 for platelet aggregation (ratio (RR/corresponding protein)): 1
